Four molecules from patent US20230374114A1 (published 2023) can be followed below.

Like-named read-outs stand apart in the source and are kept apart here.

Common to all, as to assay: BLI
On the technique in general: BLI is a label-free optical method that tracks binding on a fibre tip over time.

Experiment [1] addresses T1, Biotinylated SARS-CoV-2 S1 protein (ACRO, S1N-C82E8) (UniProt P0DTC2 16-685).
In experiment [2] the target is T1, Biotinylated SARS-CoV-2 S1 protein …. This is another data set of the same source.
Experiment [3] shares this target. The source holds these as a separate data set.
The target is the same in experiment [4]. This is another data set of the same source.
For experiment [5] the target is unchanged. This is another data set of the same source.
Experiment [6] has the same target. This is another data set of the same source.

B1: Ab 28 scFv-Fc (scFv, V domains shown)
VH: QVTLKESGPGLVNPSETLSLTCTVSGASISNSFWSWIRQSPGKGLEWIGYTSYSGNSIYNPSLKSRLTMSIDTSKNQLSLNLRSLTAADTAVYYCARREWIKGHFDYWGQGTLVTVSS
VL: NFMLTQPHSVSESPGKTVTISCTGSGGSIASNYVQWYQQRPGSAPTTVIYEDNQRPSGVPDRFSGSIDSSSNSASLTISGLKTEDEADYYCQSYDSSNPVVFGGGTKLTVL
In general, Kd refers to a measure of binding affinity in units of concentration. Take B1: the equilibrium dissociation constant (Kd) in experiment [1] and in experiment [2] was below 0.001 nM throughout.

B2: Ab 23 scFv-Fc (scFv, V domains shown)
VH: EVQLVQSGAEVKKPGSSVKVSCRSSGGTFSTYGITWVRQAPGQGLEWMGRIIPSLGIPNYAQKFQGRVTITADTSVSTAWMELSSLESDDTAIYYCARENIDLATNDFWGQGTLVTVSS
VL: QSALTQPPSASGSPGQSVTISCTGTSRDIGAYGYVSWYQQVPGKAPKLIIYEVRNRPSGVSSRFSGSKSGNTASLTISGLQAEDEADYYCSSYTSSSTLDVVFGGGTKLTVL
In the case of B2, the Kd in experiment [1] and in experiment [2] was 0.338 nM throughout.

B3: Ab 12 scFv-Fc (S1-R3-T1-H7) (scFv, V domains shown)
VH: EVQLVESGPGVVSPSATLFLTCSVSGGSIRTHSWNWIRQPPGKPLEWIGFIHHSGATNKNPSLKSRVTISSDTSKNEFSLTLTSVTAADTAVYYCARGPGILSYWSRGTLVTVSS
VL: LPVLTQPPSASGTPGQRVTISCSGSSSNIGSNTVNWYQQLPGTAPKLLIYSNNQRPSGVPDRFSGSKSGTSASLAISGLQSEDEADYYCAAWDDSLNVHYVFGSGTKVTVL
Take B3: the Kd in experiment [3], in experiment [1], in experiment [4], in experiment [5] and in experiment [6] was below 0.001 nM in each case.

B4: Ab_17 (scFv, V domains shown)
VH: QVQLVQSGGGVVQPGRSLRLSCAASGFTFDDYAMHWVRQVPGKGLEWVSGIDWNSGVIGYADSVKGRFTISRDNVKNSLYLQMNSLRTEDSALYYCAKDIGPGGSGSYYAFDIWGQGTTVTVSS
VL: QSALTQPASVSGSPGQSITISCTGTSSDVGGSKYVSWYQQHPGKAPKVMIYDVTKRPSGVPDRFSGSKSGNTASLTISGLQAEDEADYYCAAWDDSLNGVVFGGGTKLTVL
Take B4: the Kd in experiment [1] and in experiment [2] was 0.716 nM throughout.
